The values below come from patent US20050186197A1.

Positions of bridges follow the written chain, without caps; N, C: chain ends. No end group written: not given here.

In one test the target is TEM-1 β-lactamase (UniProt P62593). The test can be described thus: β-lactamase inhibition assay (cephalosporin C).
Test [1] has as its target class C β-lactamase P99 from Enterobacter cloacae (Enterobacter cloacae) (UniProt P05364). Nature of the test: β-lactamase inhibition assay (cephalosporin C).
The target in test [2] is T1, TEM-1 β-lactamase, P62593.
T1 chain: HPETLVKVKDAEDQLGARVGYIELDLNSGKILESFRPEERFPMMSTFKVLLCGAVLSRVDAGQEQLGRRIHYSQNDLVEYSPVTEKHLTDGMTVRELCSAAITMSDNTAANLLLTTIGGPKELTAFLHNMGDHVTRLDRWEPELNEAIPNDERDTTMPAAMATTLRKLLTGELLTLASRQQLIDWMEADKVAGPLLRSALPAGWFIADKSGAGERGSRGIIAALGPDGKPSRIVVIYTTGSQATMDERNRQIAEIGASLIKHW
The test can be described thus: ratio of Ki values, β-lactamase inhibition assay.

The target in test [3] is T2, class C β-lactamase P99 from Enterobacter cloacae (Enterobacter cloacae), P05364. The test can be described thus: ratio of Ki values, β-lactamase inhibition assay.
Test [4] deals with T1, TEM-1 β-lactamase, P62593. Nature of the test: β-lactamase inhibition assay (cephalosporin C), Ki from IC50 by Cheng-Prusoff.
Test [5] addresses T2, class C β-lactamase P99 from …. The description is as above.
Test [6] concerns the target T1, TEM-1 β-lactamase, P62593. The test can be described thus: β-lactamase inhibition assay, disulfide-bonded peptide.

T2 sequence (P05364 21-381 limits assumed): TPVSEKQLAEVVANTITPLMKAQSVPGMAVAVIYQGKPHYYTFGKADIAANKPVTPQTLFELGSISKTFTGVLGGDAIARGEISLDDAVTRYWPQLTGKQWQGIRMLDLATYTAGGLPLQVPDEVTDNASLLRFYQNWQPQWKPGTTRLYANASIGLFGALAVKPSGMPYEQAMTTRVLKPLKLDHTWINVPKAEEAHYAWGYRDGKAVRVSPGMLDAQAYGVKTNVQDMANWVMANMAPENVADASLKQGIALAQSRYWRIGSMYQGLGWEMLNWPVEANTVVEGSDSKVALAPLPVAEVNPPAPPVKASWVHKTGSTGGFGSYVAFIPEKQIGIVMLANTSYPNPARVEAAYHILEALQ

By Ki is commonly meant the equilibrium dissociation constant of an inhibitor or competing ligand from its target. Low values mean a stronger hold on the target, high ones a looser hold on the target. RR-NH2 (peptide): the Ki (with TEM-1 β-lactamase; in test [1]) was over 2000 µM in each case.

B1: AAGHYY-NH2 (peptide)
peptide: AAGHYY-NH2
B1: the fold increase in Ki relative to RRGHYY-NH2 in test [2] and in test [3] was 3 fold throughout. Further, the figures for the inhibition constant (Ki) in test [4] and in test [5] were 438 µM and 468 µM, respectively.

B2: RRGHYY-NH2 (peptide)
peptide: RRGHYY-NH2
As for B2, in test [2], the fold improvement in affinity relative to disulfide bonded …-NH2 stood at 25 fold and the fold improvement in affinity relative to …-NH2 was 2 fold. For the same molecule, in test [4], the Ki stood at 136 µM. The same molecule came in with a Ki in test [5] of 140 µM.

B3: …-NH2 (disulfide-bonded soluble peptide) (peptide)
peptide: HSACSDTRRGDCG-NH2
modifications: disulfide 4-12 (inferred)
In turn, B3 registered a Ki in test [6] of 3500 µM.

B4: …-NH2 (peptide)
peptide: HSAYSDTRRGDYG-NH2
B4: the fold increase in binding affinity relative to the cysteine peptide …-NH2 in test [2] was found to be 10 fold. Further, the values for the inhibition constant Ki in test [4] and in test [5] were 298 µM and 254 µM, respectively.
